Assay results published in PMC2173332.
Where two headings read alike, the source gives them in different places.

Columns and labels:
[1] = biological target: acyl-CoA oxidase isoform Aox1p (Yarrowia lipolytica); assay: co-IP
[2] = biological target: acyl-CoA oxidase isoform Aox1p (Yarrowia lipolytica); assay: co-IP; remark: listed apart in the source

Row | Substance | stoichiometry N [1] | stoichiometry N [2]
1 | acyl-CoA oxidase isoform Aox2p (enzyme) | 1 | 1
2 | acyl-CoA oxidase isoform Aox3p (enzyme) | 1 | 1
3 | acyl-CoA oxidase isoform Aox5p (enzyme) | 1 | 1
4 | acyl-CoA oxidase isoform Aox4p (enzyme) | 1 | 1
